Data reported in the supplement of paper PMC9112550, “Optimization of the antimicrobial peptide Bac7 by deep mutational scanning” (BMC Biology, 2022).

These sequences were tested on Escherichia coli TOP10 (assay: shrunken log2 fold change of peptide-encoding DNA abundance (4.5 h post-induction vs induction); higher = less antimicrobial activity (less host growth inhibition)). Conditions: time post-induction: 4.5 h; library: site-saturation at positions 5, 18, 19, 20.
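Also: peptides expressed intracellularly from a pBAD plasmid library in pooled LB shake-flask culture, induced with 0.3% L-arabinose, DNA abundance read by NGS, three biological replicates, DESeq2 with apeglm shrinkage.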

| Sequence | shrunken log2 fold change |
| --- | --- |
| RRIRMRPPRLPRPRPRPSTAPRP | 0.788 |
| RRIRMRPPRLPRPRPRPNISPRP | -0.29 |
| RRIRTRPPRLPRPRPRPALFPRP | 0.000901 |
| RRIRTRPPRLPRPRPRPGVYPRP | -0.116 |
| RRIRKRPPRLPRPRPRPISAPRP | 0.164 |
| RRIRRRPPRLPRPRPRPTYGPRP | 0.0875 |
| RRIRWRPPRLPRPRPRPEKAPRP | -0.0225 |
| RRIRVRPPRLPRPRPRPHDHPRP | -0.244 |
| RRIRPRPPRLPRPRPRPEPSPRP | 0.314 |
| RRIRPRPPRLPRPRPRPPYRPRP | 0.103 |
| RRIRWRPPRLPRPRPRPDWLPRP | 0.111 |
| RRIRLRPPRLPRPRPRPAFFPRP | 0.406 |
| RRIRHRPPRLPRPRPRPDAAPRP | 0.453 |
| RRIRLRPPRLPRPRPRPRHGPRP | 0.414 |
| RRIRYRPPRLPRPRPRPHVNPRP | -0.0934 |
| RRIRIRPPRLPRPRPRPWIDPRP | 0.0218 |
| RRIRMRPPRLPRPRPRPNYWPRP | -0.0168 |
| RRIRMRPPRLPRPRPRPYADPRP | 0.419 |
| RRIRQRPPRLPRPRPRPIVKPRP | -0.108 |
| RRIRKRPPRLPRPRPRPHWTPRP | -0.0277 |
| RRIRPRPPRLPRPRPRPITDPRP | -0.16 |
| RRIRWRPPRLPRPRPRPFQVPRP | -0.19 |
| RRIRDRPPRLPRPRPRPTSEPRP | 0.236 |
| RRIRYRPPRLPRPRPRPTNVPRP | -0.868 |
| RRIRTRPPRLPRPRPRPCGYPRP | -0.0816 |

| Sequence | shrunken log2 fold change |
| --- | --- |
| RRIRLRPPRLPRPRPRPNCTPRP | -0.24 |
| RRIRNRPPRLPRPRPRPQEMPRP | -0.218 |
| RRIRQRPPRLPRPRPRPNIMPRP | -0.462 |
| RRIRWRPPRLPRPRPRPAPMPRP | 0.615 |
| RRIRRRPPRLPRPRPRPKCDPRP | 0.0319 |
| RRIRRRPPRLPRPRPRPPMMPRP | 0.21 |
| RRIRERPPRLPRPRPRPGNAPRP | -0.0685 |
| RRIRLRPPRLPRPRPRPEFVPRP | 0.0203 |
| RRIRKRPPRLPRPRPRPIEKPRP | 0.694 |
| RRIRKRPPRLPRPRPRPWFNPRP | -0.209 |
| RRIRIRPPRLPRPRPRPKNHPRP | -0.622 |
| RRIRKRPPRLPRPRPRPYRWPRP | -0.164 |
| RRIRTRPPRLPRPRPRPIAKPRP | -0.3 |
| RRIRERPPRLPRPRPRPVSQPRP | -0.0404 |
| RRIRSRPPRLPRPRPRPISFPRP | -0.216 |
| RRIRFRPPRLPRPRPRPGVDPRP | -0.145 |
| RRIRVRPPRLPRPRPRPAMSPRP | -0.096 |
| RRIRDRPPRLPRPRPRPAPKPRP | 0.0948 |
| RRIRDRPPRLPRPRPRPDYWPRP | -0.00116 |
| RRIRRRPPRLPRPRPRPVRGPRP | 0.805 |
| RRIRIRPPRLPRPRPRPQDDPRP | 0.0213 |
| RRIRNRPPRLPRPRPRPKQWPRP | 0.217 |
| RRIRYRPPRLPRPRPRPQHDPRP | -1.4 |
| RRIRQRPPRLPRPRPRPVCNPRP | -0.0714 |
| RRIRCRPPRLPRPRPRPDSEPRP | 0.0197 |

| Sequence | shrunken log2 fold change |
| --- | --- |
| RRIRCRPPRLPRPRPRPQMVPRP | 0.151 |
| RRIRARPPRLPRPRPRPCEDPRP | 0.693 |
| RRIRKRPPRLPRPRPRPKGFPRP | 0.0233 |
| RRIRSRPPRLPRPRPRPNSQPRP | -0.118 |
| RRIRKRPPRLPRPRPRPTMAPRP | 0.638 |
| RRIRQRPPRLPRPRPRPSHAPRP | -0.107 |
| RRIRWRPPRLPRPRPRPSHNPRP | -0.596 |
| RRIRWRPPRLPRPRPRPVQSPRP | 0.0186 |
| RRIRARPPRLPRPRPRPQTYPRP | 0.00151 |
| RRIRIRPPRLPRPRPRPKHCPRP | -0.405 |
| RRIRTRPPRLPRPRPRPTKGPRP | -0.183 |
| RRIRMRPPRLPRPRPRPDIIPRP | 1.42 |
| RRIRFRPPRLPRPRPRPKNLPRP | -0.225 |
| RRIRERPPRLPRPRPRPAFEPRP | -0.0208 |
| RRIRTRPPRLPRPRPRPSCFPRP | -0.0671 |
| RRIRKRPPRLPRPRPRPDTHPRP | 0.234 |
| RRIRNRPPRLPRPRPRPETMPRP | -0.0713 |
| RRIRWRPPRLPRPRPRPVHNPRP | -0.152 |
| RRIRYRPPRLPRPRPRPGIFPRP | -0.708 |
| RRIRFRPPRLPRPRPRPWGEPRP | 0.0156 |
| RRIRPRPPRLPRPRPRPLKPPRP | 0.0408 |
| RRIRIRPPRLPRPRPRPGQMPRP | -0.0223 |
| RRIRGRPPRLPRPRPRPRKIPRP | 0.829 |
| RRIRDRPPRLPRPRPRPIAWPRP | 0.0633 |
| RRIRWRPPRLPRPRPRPMCNPRP | -0.181 |

| Sequence | shrunken log2 fold change |
| --- | --- |
| RRIRMRPPRLPRPRPRPDKRPRP | 0.076 |
| RRIRCRPPRLPRPRPRPEYSPRP | -0.38 |
| RRIRMRPPRLPRPRPRPSYYPRP | -0.531 |
| RRIRMRPPRLPRPRPRPWTMPRP | 0.0064 |
| RRIRVRPPRLPRPRPRPKFDPRP | 0.21 |
| RRIRNRPPRLPRPRPRPSSIPRP | -0.0475 |
| RRIRHRPPRLPRPRPRPQGCPRP | -0.0592 |
| RRIRMRPPRLPRPRPRPPLVPRP | 0.36 |
| RRIRPRPPRLPRPRPRPSEVPRP | -0.079 |
| RRIRPRPPRLPRPRPRPMIGPRP | 0.00964 |
| RRIRIRPPRLPRPRPRPQFHPRP | -1.12 |
| RRIRLRPPRLPRPRPRPFCSPRP | 1.91 |
| RRIRMRPPRLPRPRPRPWEMPRP | -0.0802 |
| RRIRCRPPRLPRPRPRPQWAPRP | 0.0425 |
| RRIRRRPPRLPRPRPRPLGQPRP | 0.00384 |
| RRIRRRPPRLPRPRPRPQYYPRP | -0.968 |
| RRIRRRPPRLPRPRPRPGFVPRP | 0.423 |
| RRIRNRPPRLPRPRPRPINAPRP | -0.00965 |
| RRIRWRPPRLPRPRPRPFNMPRP | -0.298 |
| RRIRGRPPRLPRPRPRPNHAPRP | -0.0738 |
| RRIRRRPPRLPRPRPRPCMWPRP | 0.313 |
| RRIRKRPPRLPRPRPRPVTCPRP | -0.0146 |
| RRIRRRPPRLPRPRPRPINFPRP | -0.0729 |
| RRIRYRPPRLPRPRPRPKNNPRP | -1.02 |
| RRIRLRPPRLPRPRPRPSLTPRP | -0.0866 |

| Sequence | shrunken log2 fold change |
| --- | --- |
| RRIRCRPPRLPRPRPRPNRFPRP | 2.96 |
| RRIRVRPPRLPRPRPRPGQIPRP | -0.0586 |
| RRIRKRPPRLPRPRPRPTMKPRP | -0.0364 |
| RRIRVRPPRLPRPRPRPKANPRP | 0.103 |
| RRIRERPPRLPRPRPRPTQLPRP | 0.251 |
| RRIRCRPPRLPRPRPRPAHLPRP | -0.104 |
| RRIRTRPPRLPRPRPRPAWPPRP | 0.444 |
| RRIRFRPPRLPRPRPRPTVLPRP | -0.0624 |
| RRIRPRPPRLPRPRPRPTHHPRP | 0.264 |
| RRIRMRPPRLPRPRPRPRFMPRP | 0.385 |
| RRIRNRPPRLPRPRPRPIHLPRP | -0.73 |
| RRIRTRPPRLPRPRPRPPLQPRP | 0.369 |
| RRIRLRPPRLPRPRPRPHTQPRP | -0.31 |
| RRIRLRPPRLPRPRPRPKQEPRP | -0.00888 |
| RRIRQRPPRLPRPRPRPLNMPRP | -0.423 |
| RRIRQRPPRLPRPRPRPAIAPRP | 0.0382 |
| RRIRRRPPRLPRPRPRPSCYPRP | -0.0677 |
| RRIRHRPPRLPRPRPRPAWWPRP | 0.157 |
| RRIRFRPPRLPRPRPRPFSSPRP | -0.468 |
| RRIRSRPPRLPRPRPRPKMTPRP | 0.0901 |
| RRIRKRPPRLPRPRPRPHQTPRP | 0.202 |
| RRIRGRPPRLPRPRPRPYCAPRP | -0.119 |
| RRIRMRPPRLPRPRPRPNEHPRP | 0.0235 |
| RRIRSRPPRLPRPRPRPQCQPRP | -0.146 |
| RRIRLRPPRLPRPRPRPEYQPRP | -0.0351 |

| Sequence | shrunken log2 fold change |
| --- | --- |
| RRIRSRPPRLPRPRPRPDFTPRP | 0.0298 |
| RRIRQRPPRLPRPRPRPSWPPRP | -0.0496 |
| RRIRGRPPRLPRPRPRPSWQPRP | 0.109 |
| RRIRVRPPRLPRPRPRPNWTPRP | 0.0136 |
| RRIRMRPPRLPRPRPRPEDMPRP | 3.26 |
| RRIRCRPPRLPRPRPRPWKIPRP | -0.268 |
| RRIRGRPPRLPRPRPRPCKNPRP | 0.397 |
| RRIRKRPPRLPRPRPRPSHAPRP | 0.155 |
| RRIRTRPPRLPRPRPRPPYMPRP | -0.302 |
| RRIRFRPPRLPRPRPRPNSTPRP | -0.671 |
| RRIRCRPPRLPRPRPRPTRKPRP | -0.0442 |
| RRIRFRPPRLPRPRPRPWLQPRP | -0.163 |
| RRIRLRPPRLPRPRPRPPKVPRP | 0.287 |
| RRIRARPPRLPRPRPRPCHWPRP | -0.153 |
| RRIRSRPPRLPRPRPRPHHQPRP | -0.61 |
| RRIRSRPPRLPRPRPRPDSPPRP | 0.242 |
| RRIRQRPPRLPRPRPRPQLHPRP | -0.237 |
| RRIRTRPPRLPRPRPRPCASPRP | 0.184 |
| RRIRNRPPRLPRPRPRPPQNPRP | -0.0172 |
| RRIRARPPRLPRPRPRPHMVPRP | -0.069 |
| RRIRRRPPRLPRPRPRPCSKPRP | -0.123 |
| RRIRVRPPRLPRPRPRPYKDPRP | -0.933 |
| RRIRCRPPRLPRPRPRPDGQPRP | 0.101 |
| RRIRTRPPRLPRPRPRPAVVPRP | 0.0328 |
| RRIRQRPPRLPRPRPRPHFIPRP | -0.328 |
